The target in this assay is T1, GST-UTP13^1–320 (human, UniProt Q12788 1-320).
T1 sequence: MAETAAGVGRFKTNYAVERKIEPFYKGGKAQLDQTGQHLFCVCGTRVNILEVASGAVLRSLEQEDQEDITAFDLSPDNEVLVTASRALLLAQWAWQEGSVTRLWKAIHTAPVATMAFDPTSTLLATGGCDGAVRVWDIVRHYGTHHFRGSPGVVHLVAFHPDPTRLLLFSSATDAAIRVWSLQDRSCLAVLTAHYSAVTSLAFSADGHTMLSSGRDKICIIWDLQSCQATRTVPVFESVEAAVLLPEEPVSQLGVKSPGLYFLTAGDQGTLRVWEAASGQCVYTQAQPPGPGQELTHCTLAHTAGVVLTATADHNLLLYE
Nature of the assay: pull-down.

B1: HIS-UTP3^1–319 (domain or fragment)
chain: MVGRSRRRGAAKWAAVRAKAGPTLTDENGDDLGLPPSPGDTSYYQDQVDDFHEARSRAALAKGWNEVQSGDEEDGEEEEEEVLALDMDDEDDEDGGNAGEEEEEENADDDGGSSVQSEAEASVDPSLSWGQRKKLYYDTDYGSKSRGRQSQQEAEEEEREEEEEAQIIQRRLAQALQEDDFGVAWVEAFAKPVPQVDEAETRVVKDLAKVSVKEKLKMLRKESPELLELIEDLKVKLTEVKDELEPLLELVEQGIIPPGKGSQYLRTKYNLYLNYCSNISFYLILKARRVPAHGHPVIERLVTYRNLINKLSVVDQKLS
B1: the binding result is listed as “binds”.

These data come from paper PMC11381329 (Nucleic Acids Research, 2024).
